Experimental data reported in patent publication US20240226308A1, “DOSING REGIMENS OF PEPTIDE CONJUGATES OF TOPOISOMERASE I INHIBITORS” (CYBREXA 2, INC., priority 2021, published 2024).
Entries after “also recorded” stand apart in the source; their conditions may differ. Where two headings read alike, the source gives them in different places.

Key:
[1] = Phase 1/2 study of Compound 1: safety and tolerability (adverse events, NCI CTCAE v5.0); type: in vivo, human
Description: (§1) This is a first-in-human, Phase 1/2 open-label, multicenter, dose-escalation, safety, pharmacokinetics (PK), and biomarker study of Compound 1 in subjects with advanced or metastatic refractory solid tumors.
• To determine the safety and tolerability, maximum tolerated doses (MTDs) and dose limiting toxicities (DLTs) of Compound 1 in subjects with advanced or metastatic refractory solid tumors when administered on the following schedules: • Daily×5 every 3 weeks (Part A) • Daily×3 every 3 weeks (Part B) • To establish the Recommended Phase 2 Dose (RP2D) of Compound 1 for each schedule
(§2) The subject will receive treatment with Compound 1 and be monitored for safety and disease status by AE assessment, physical examination, laboratory tests, radiologic assessment, and ECG. PK and biomarker samples will be collected. All AEs and serious adverse events (SAEs) will be assessed using the National Cancer Institute Common Terminology Criteria for Adverse Events (NCI CTCAE) v5.0. Disease assessments by computed tomography (CT) or magnetic resonance imaging (MRI) will be conducted at protocol-specific intervals. Subjects may continue treatment as long as they are tolerating treatment without disease progression based on RECIST 1.1.
DLTs will be assessed for all subjects enrolled in Phase I through their initial 3-week cycle of treatment (Cycle 1, the DLT period). Any AE occurring during the DLT period deemed at least possibly related to Compound 1 and meeting the criteria below will be designated a DLT. […] This will, however, be considered in the SRC's subsequent dose-level recommendations.
(§3) Compound 1 was administered as a 1-hour IV infusion. As set forth above, the first patient on study was treated with a starting dose of 0.25 mg/kg, which was dosed daily five times a week every 3 weeks (Schedule A). Initially. an accelerated dose tritation was utilized, wherein single patient cohorts were accrued and the dose was escalated up to 100% for each new cohort until the occurrence of Grade 2 or greater treatment-related adverse events (TRAEs). A single patient was accrued to Cohort A1 (0.25 mg/kg). The dose was doubled to 0.5 mg/kg for Cohort A2, and 3 patients were accrued to this cohort due to the occurrence of greater than Grade 2 level adverse events.
Schedule B: once daily three times per week every three weeks, on a mg/m^2 basis (in other words, the dosage was calculated based on the patient's body surface area)
Schedule C: once weekly on a mg/m^2 basis. Patients treated on this schedule received a sentinel dose on Day -14 followed by 2 weeks of no treatment to evaluate the full PK profile of Compound 1 and exatecan. Once weekly dosing started Cycle 1 Day 1.

[2] = Phase 1/2 study of Compound 1: pharmacokinetics; type: in vivo, human; conditions: for half-life: in vivo
Description: as §1
• To determine the pharmacokinetics (PK) of Compound 1 • To evaluate the preliminary anti-tumor activity of Compound 1 based on Response Evaluation Criteria in Solid Tumors (RECIST) 1.1 as follows: • Objective response rate (ORR) • Duration of response (DoR) • Progression-free survival (PFS)
as §2, §3

[3] = Subject 1-5, Ovarian, prior TOP1 inhibitor Yes, Cohort B1 20 mg/m^2, Schedule B: Daily x 3 Every 3 Weeks
[4] = Subject 1-8, Pancreas, prior TOP1 inhibitor Yes, Cohort C1 20 mg/m^2, Schedule C: Once Weekly
[5] = Subject 1-9, Colorectal, prior TOP1 inhibitor Yes, Cohort B3 45 mg/m^2, Schedule B: Daily x 3 Every 3 Weeks
[6] = Subject 2-4, Appendiceal, prior TOP1 inhibitor Yes, Cohort B2 30 mg/m^2, Schedule B: Daily x 3 Every 3 Weeks
[7] = Subject 2-6, Breast, prior TOP1 inhibitor No, Cohort B2 30 mg/m^2, Schedule B: Daily x 3 Every 3 Weeks
[8] = Subject 2-12, Breast, prior TOP1 inhibitor No, Cohort B4 60 mg/m^2, Schedule B: Daily x 3 Every 3 Weeks
[9] = Subject 3-1, Colorectal, prior TOP1 inhibitor Yes, Cohort B3 45 mg/m^2, Schedule B: Daily x 3 Every 3 Weeks
[10] = Subject 5-2, Colorectal, prior TOP1 inhibitor Yes, Cohort B4 60 mg/m^2, Schedule B: Daily x 3 Every 3 Weeks

CC[C@@]1(O)C(=O)OCc2c1cc1n(c2=O)Cc2c-1nc1cc(F)c(C)c3c1c2[C@@H](NC(=O)O[C@H]1CCCC[C@@H]1SSC[C@H](NC(=O)[C@H](Cc1c[nH]c2ccccc12)NC(=O)[C@H](CC(C)C)NC(=O)[C@H](CC(C)C)NC(=O)[C@H](CC(=O)O)NC(=O)[C@H](CC(C)C)NC(=O)[C@H](CC(C)C)NC(=O)[C@H](CC(C)C)NC(=O)[C@@H](NC(=O)[C@H](CC(=O)O)NC(=O)[C@@H](NC(=O)[C@@H]1CCCN1C(=O)[C@H](Cc1ccccc1)NC(=O)[C@H](CC(C)C)NC(=O)[C@H](CC(C)C)NC(=O)[C@H](CC(=O)O)NC(=O)[C@H](CC(C)C)NC(=O)[C@H](Cc1ccc(O)cc1)NC(=O)[C@H](C)NC(=O)[C@H](CCCNC(=N)N)NC(=O)[C@H](Cc1c[nH]c2ccccc12)NC(=O)[C@@H]1CCCN1C(=O)[C@H](CC(N)=O)NC(=O)[C@H](CCC(N)=O)NC(=O)[C@H](CC(=O)O)NC(=O)[C@H](CC(=O)O)NC(=O)[C@H](C)N)[C@@H](C)O)[C@@H](C)O)C(=O)NCC(=O)O)CC3 [Compound 1]
adverse events, Grade level ([1]; Cohort A2, 0.5 mg/kg, Schedule A, 3 patients): > 2
Treatment-Related Adverse Events, Gr 1 [1, 3]: Gr 1: Fatigue
Treatment-Related Adverse Events, Gr 2 [1, 3]: Dehydration
Treatment-Related Adverse Events ([1]; Subject 1-6, Testicular, prior TOP1 inhibitor No, Cohort B1 20 mg/m^2, Schedule B: Daily x 3 Every 3 Weeks): No TRAEs
Treatment-Related Adverse Events, Gr 2 ([1]; Subject 1-7, Esophageal/GEJ (baseline Hgb 9.4), Cohort B1 20 mg/m^2, Schedule B: Daily x 3 Every 3 Weeks): Gr 2: Anemia
Treatment-Related Adverse Events, Gr 1 ([1]; Subject 1-7, Esophageal/GEJ, prior TOP1 inhibitor No, Cohort B1 20 mg/m^2, Schedule B: Daily x 3 Every 3 Weeks): Gr 1: Fatigue,
Treatment-Related Adverse Events, Gr 1 [1, 4]: Gr 1: Vomiting
Treatment-Related Adverse Events, Gr 2 [1, 4]: Gr 2: Nausea
Treatment-Related Adverse Events, Gr 1 [1, 5]: Gr 1: Vomiting,; also recorded: diarrhea
Treatment-Related Adverse Events, Gr 2 [1, 5]: Gr 2: Nausea
Treatment-Related Adverse Events, Gr 3 ([1]; Subject 1-9, Colorectal, AST/ALT elevation resolved to Gr 1 in 2-3 days, Cohort B3 45 mg/m^2, Schedule B: Daily x 3 Every 3 Weeks): anemia
Treatment-Related Adverse Events ([1]; Subject 2-1, Pancreas, prior TOP1 inhibitor Yes, Cohort C1 20 mg/m^2, Schedule C: Once Weekly): No TRAES
Treatment-Related Adverse Events ([1]; Subject 2-2, Colon, prior TOP1 inhibitor Yes, Cohort C1 20 mg/m^2, Schedule C: Once Weekly, off treatment after PK period): No TRAEs
Treatment-Related Adverse Events, Gr 2 ([1]; Subject 2-3, Ovarian, prior TOP1 inhibitor No, Cohort C1 20 mg/m^2, Schedule C: Once Weekly): Gr 2: Fatigue
Treatment-Related Adverse Events, Gr 1 [1, 6]: Gr 1: Anemia
Treatment-Related Adverse Events, Gr 2 [1, 6]: Gr 2: Nausea,; also recorded: vomiting
Treatment-Related Adverse Events, Gr 3 ([1]; Subject 2-5, Breast, prior TOP1 inhibitor Yes (C4D11), Cohort B2 30 mg/m^2, Schedule B: Daily x 3 Every 3 Weeks): Neutropenia
Treatment-Related Adverse Events, Gr 1 [1, 7]: Gr 1: Fatigue,; also recorded: nausea
Treatment-Related Adverse Events, Gr 2 [1, 7]: Neutropenia,; also recorded: WBC decrease
Treatment-Related Adverse Events ([1]; Subject 2-8, Osteosarcoma, prior TOP1 inhibitor Unknown, Cohort B3 45 mg/m^2, Schedule B: Daily x 3 Every 3 Weeks, removed from study on C1D2): No TRAEs
Treatment-Related Adverse Events ([1]; Subject 2-9, Breast, prior TOP1 inhibitor No, Cohort C1 20 mg/m^2, Schedule C: Once Weekly): No TRAEs
Treatment-Related Adverse Events, Gr 2 ([1]; Subject 2-11, Ovarian (C1D1 Hgb = 10.3), Cohort B3 45 mg/m^2, Schedule B: Daily x 3 Every 3 Weeks): Gr 2: Anemia
Treatment-Related Adverse Events, Gr 3 ([1]; Subject 2-11, Ovarian (resolved in 2 days), Cohort B3 45 mg/m^2, Schedule B: Daily x 3 Every 3 Weeks): Neutropenia
Treatment-Related Adverse Events, Gr 1 ([1]; Subject 2-11, Ovarian, prior TOP1 inhibitor No, Cohort B3 45 mg/m^2, Schedule B: Daily x 3 Every 3 Weeks): Gr 1: Nausea,; also recorded: lipase increase,; also recorded: alopecia
Treatment-Related Adverse Events, Gr 1 [1, 8]: Gr 1: Vomiting
Treatment-Related Adverse Events, Gr 2 [1, 8]: Gr 2: Colitis
Treatment-Related Adverse Events, Gr 4 [1, 8]: Neutropenia,; also recorded: thrombocytopenia
Treatment-Related Adverse Events, Gr 1 [1, 9]: Gr 1: Headache
Treatment-Related Adverse Events, Gr 2 [1, 9]: Gr 2: Nausea,; also recorded: WBC decrease,; also recorded: ANC decrease,; also recorded: diarrhea
Treatment-Related Adverse Events, Gr 2 [1, 10]: Gr2: Vomiting,; also recorded: dehydration
Treatment-Related Adverse Events, Gr 3 [1, 10]: anemia
Treatment-Related Adverse Events, Gr 4 [1, 10]: Neutropenia,; also recorded: thrombocytopenia
accumulation ([2]; five consecutive days of dosing, Schedule A): significant accumulation
half-life ([2]; human, initial four patients, Schedule A (daily five times a week every 3 weeks), 0.25-0.5 mg/kg, 1-hour IV infusion, read-out: half-life of Compound 1 (converted)): ~1200 min
half-life ([2]; prediction made before the study, read-out: predicted half-life (converted)): ~480 min
